Measurements published in paper PMC10615991.

Biological target: Recombinant angiotensin-converting enzyme-2 (ACE2) (UniProt Q9BYF1)
Assay: LSPR (localized surface plasmon resonance)

Sequence of Recombinant angiotensin-converting enzyme-2 (ACE2) (Q9BYF1 18-805): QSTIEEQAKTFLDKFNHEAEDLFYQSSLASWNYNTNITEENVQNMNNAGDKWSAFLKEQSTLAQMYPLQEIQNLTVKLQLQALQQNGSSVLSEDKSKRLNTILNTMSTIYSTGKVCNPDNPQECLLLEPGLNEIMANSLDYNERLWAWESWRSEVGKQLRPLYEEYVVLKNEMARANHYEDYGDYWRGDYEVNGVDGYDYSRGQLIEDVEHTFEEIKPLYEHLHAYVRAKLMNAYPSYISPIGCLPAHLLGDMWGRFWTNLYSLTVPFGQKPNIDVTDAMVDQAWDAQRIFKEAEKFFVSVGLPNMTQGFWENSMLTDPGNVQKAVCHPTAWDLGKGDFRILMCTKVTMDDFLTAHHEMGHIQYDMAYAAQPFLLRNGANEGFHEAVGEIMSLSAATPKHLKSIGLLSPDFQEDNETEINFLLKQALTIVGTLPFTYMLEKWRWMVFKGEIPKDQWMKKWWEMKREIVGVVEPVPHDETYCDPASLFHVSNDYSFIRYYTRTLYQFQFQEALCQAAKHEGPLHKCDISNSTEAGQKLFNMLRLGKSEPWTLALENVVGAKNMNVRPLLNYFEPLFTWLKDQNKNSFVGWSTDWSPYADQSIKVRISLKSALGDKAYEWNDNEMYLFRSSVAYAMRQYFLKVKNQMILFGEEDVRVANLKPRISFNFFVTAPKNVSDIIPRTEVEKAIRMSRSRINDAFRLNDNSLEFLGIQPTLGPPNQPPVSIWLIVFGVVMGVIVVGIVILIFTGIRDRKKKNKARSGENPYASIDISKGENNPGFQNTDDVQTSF

With “SARS-CoV S1 protein (from UniProt P59594 14-667) (domain or fragment)” the LOD was 0.01 ng/mL, the fold wavelength shift on Au@R/Li against Au@R, at 100 ng/ml was 1.78 fold and the fold wavelength shift on Au@R/Li against Au@R, at 1000 ng/ml was 4.51 fold. It also gave a fold wavelength shift on Au@R/Li against Au@R, at 10,000 ng/ml of 1.95 fold.
